In US10005829B2, “Synthetic linear apelin mimetics for the treatment of heart failure” (priority 2012, dated 2018):
*1 amine or outer side, *2 acyl side, *3 side chain or, on linkers, in order; H or OH if unused. [ ]: non-standard residue; d: D form. Tyr(Bzl) = L-benzyl-tyrosine, O=C([C@H](Cc1ccc(OCc2ccccc2)cc1)N[*:1])[*:2]; Phe(3,4-Cl2) = N[C@@H](Cc1ccc(Cl)c(Cl)c1)C(=O)O; 2Nal = N[C@@H](Cc1ccc2ccccc2c1)C(=O)O; Cha = N[C@@H](CC1CCCCC1)C(=O)O; pGlu = O=C1CC[C@@H](C(=O)O)N1; dNle = CCCC[C@@H](N)C(=O)O; Aib = CC(C)(N)C(=O)O

B1: pE-R-P-R-L-a-H-K-G-P-nle-F-OH (peptide)
peptide: [pGlu]RPRL[dA]HKGP[dNle]F-OH
SMILES: CCCC[C@@H](NC(=O)[C@@H]1CCCN1C(=O)CNC(=O)[C@H](CCCCN)NC(=O)[C@H](Cc1c[nH]cn1)NC(=O)[C@@H](C)NC(=O)[C@H](CC(C)C)NC(=O)[C@H](CCCNC(=N)N)NC(=O)[C@@H]1CCCN1C(=O)[C@H](CCCNC(=N)N)NC(=O)[C@@H]1CCC(=O)N1)C(=O)N[C@@H](Cc1ccccc1)C(=O)O
B2: pE-R-P-R-L-a-H-K-G-P-nle-p-f-OH (peptide)
peptide: [pGlu]RPRL[dA]HKGP[dNle][dP][dF]-OH
SMILES: CCCC[C@@H](NC(=O)[C@@H]1CCCN1C(=O)CNC(=O)[C@H](CCCCN)NC(=O)[C@H](Cc1c[nH]cn1)NC(=O)[C@@H](C)NC(=O)[C@H](CC(C)C)NC(=O)[C@H](CCCNC(=N)N)NC(=O)[C@@H]1CCCN1C(=O)[C@H](CCCNC(=N)N)NC(=O)[C@@H]1CCC(=O)N1)C(=O)N1CCC[C@@H]1C(=O)N[C@H](Cc1ccccc1)C(=O)O
B3: pE-R-P-R-L-s-H-K-G-P-nle-a-f-OH (peptide)
peptide: [pGlu]RPRL[dS]HKGP[dNle][dA][dF]-OH
SMILES: CCCC[C@@H](NC(=O)[C@@H]1CCCN1C(=O)CNC(=O)[C@H](CCCCN)NC(=O)[C@H](Cc1c[nH]cn1)NC(=O)[C@@H](CO)NC(=O)[C@H](CC(C)C)NC(=O)[C@H](CCCNC(=N)N)NC(=O)[C@@H]1CCCN1C(=O)[C@H](CCCNC(=N)N)NC(=O)[C@@H]1CCC(=O)N1)C(=O)N[C@H](C)C(=O)N[C@H](Cc1ccccc1)C(=O)O
B4: pE-R-P-R-L-(D-Leu)-H-K-G-P-nle-a-f-OH (peptide)
peptide: [pGlu]RPRL[dL]HKGP[dNle][dA][dF]-OH
SMILES: CCCC[C@@H](NC(=O)[C@@H]1CCCN1C(=O)CNC(=O)[C@H](CCCCN)NC(=O)[C@H](Cc1c[nH]cn1)NC(=O)[C@@H](CC(C)C)NC(=O)[C@H](CC(C)C)NC(=O)[C@H](CCCNC(=N)N)NC(=O)[C@@H]1CCCN1C(=O)[C@H](CCCNC(=N)N)NC(=O)[C@@H]1CCC(=O)N1)C(=O)N[C@H](C)C(=O)N[C@H](Cc1ccccc1)C(=O)O
B5: pE-R-P-R-(D-Leu)-S-a-K-G-P-nle-a-f-OH (peptide)
peptide: [pGlu]RPR[dL]S[dA]KGP[dNle][dA][dF]-OH
SMILES: CCCC[C@@H](NC(=O)[C@@H]1CCCN1C(=O)CNC(=O)[C@H](CCCCN)NC(=O)[C@@H](C)NC(=O)[C@H](CO)NC(=O)[C@@H](CC(C)C)NC(=O)[C@H](CCCNC(=N)N)NC(=O)[C@@H]1CCCN1C(=O)[C@H](CCCNC(=N)N)NC(=O)[C@@H]1CCC(=O)N1)C(=O)N[C@H](C)C(=O)N[C@H](Cc1ccccc1)C(=O)O
B6: pE-R-P-R-L-a-H-K-G-P-nle-a-d-OH (peptide)
peptide: [pGlu]RPRL[dA]HKGP[dNle][dA][dD]-OH
SMILES: CCCC[C@@H](NC(=O)[C@@H]1CCCN1C(=O)CNC(=O)[C@H](CCCCN)NC(=O)[C@H](Cc1c[nH]cn1)NC(=O)[C@@H](C)NC(=O)[C@H](CC(C)C)NC(=O)[C@H](CCCNC(=N)N)NC(=O)[C@@H]1CCCN1C(=O)[C@H](CCCNC(=N)N)NC(=O)[C@@H]1CCC(=O)N1)C(=O)N[C@H](C)C(=O)N[C@H](CC(=O)O)C(=O)O
B7: pE-R-P-R-L-a-H-K-G-Pip-nle-a-f-OH (peptide)
peptide: ERPRLAHKGXLAF
modifications: pE (pyroglutamic acid) at 1; D-Ala at 6; Pip (pipecolic acid) at 10; D-Nle at 11; D-Ala at 12; D-Phe at 13
B8: pE-R-P-R-(3,4-Cl2-F)-a-H-K-G-P-nle-a-f-OH (peptide)
peptide: [pGlu]RPR[Phe(3,4-Cl2)][dA]HKGP[dNle][dA][dF]-OH
SMILES: CCCC[C@@H](NC(=O)[C@@H]1CCCN1C(=O)CNC(=O)[C@H](CCCCN)NC(=O)[C@H](Cc1c[nH]cn1)NC(=O)[C@@H](C)NC(=O)[C@H](Cc1ccc(Cl)c(Cl)c1)NC(=O)[C@H](CCCNC(=N)N)NC(=O)[C@@H]1CCCN1C(=O)[C@H](CCCNC(=N)N)NC(=O)[C@@H]1CCC(=O)N1)C(=O)N[C@H](C)C(=O)N[C@H](Cc1ccccc1)C(=O)O
B9: pE-R-P-R-(2-Nal)-a-H-K-G-P-nle-a-f-OH (peptide)
peptide: [pGlu]RPR[2Nal][dA]HKGP[dNle][dA][dF]-OH
SMILES: CCCC[C@@H](NC(=O)[C@@H]1CCCN1C(=O)CNC(=O)[C@H](CCCCN)NC(=O)[C@H](Cc1c[nH]cn1)NC(=O)[C@@H](C)NC(=O)[C@H](Cc1ccc2ccccc2c1)NC(=O)[C@H](CCCNC(=N)N)NC(=O)[C@@H]1CCCN1C(=O)[C@H](CCCNC(=N)N)NC(=O)[C@@H]1CCC(=O)N1)C(=O)N[C@H](C)C(=O)N[C@H](Cc1ccccc1)C(=O)O
B10: pE-R-P-R-L-a-H-K-G-P-nle-r-f-OH (peptide)
peptide: [pGlu]RPRL[dA]HKGP[dNle][dR][dF]-OH
SMILES: CCCC[C@@H](NC(=O)[C@@H]1CCCN1C(=O)CNC(=O)[C@H](CCCCN)NC(=O)[C@H](Cc1c[nH]cn1)NC(=O)[C@@H](C)NC(=O)[C@H](CC(C)C)NC(=O)[C@H](CCCNC(=N)N)NC(=O)[C@@H]1CCCN1C(=O)[C@H](CCCNC(=N)N)NC(=O)[C@@H]1CCC(=O)N1)C(=O)N[C@H](CCCNC(=N)N)C(=O)N[C@H](Cc1ccccc1)C(=O)O
B11: pE-R-P-R-L-k-H-K-G-P-nle-a-f-OH (peptide)
peptide: [pGlu]RPRL[dK]HKGP[dNle][dA][dF]-OH
SMILES: CCCC[C@@H](NC(=O)[C@@H]1CCCN1C(=O)CNC(=O)[C@H](CCCCN)NC(=O)[C@H](Cc1c[nH]cn1)NC(=O)[C@@H](CCCCN)NC(=O)[C@H](CC(C)C)NC(=O)[C@H](CCCNC(=N)N)NC(=O)[C@@H]1CCCN1C(=O)[C@H](CCCNC(=N)N)NC(=O)[C@@H]1CCC(=O)N1)C(=O)N[C@H](C)C(=O)N[C@H](Cc1ccccc1)C(=O)O
B12: pE-R-P-R-L-a-H-K-G-P-nle-(D-Leu)-f-OH (peptide)
peptide: [pGlu]RPRL[dA]HKGP[dNle][dL][dF]-OH
SMILES: CCCC[C@@H](NC(=O)[C@@H]1CCCN1C(=O)CNC(=O)[C@H](CCCCN)NC(=O)[C@H](Cc1c[nH]cn1)NC(=O)[C@@H](C)NC(=O)[C@H](CC(C)C)NC(=O)[C@H](CCCNC(=N)N)NC(=O)[C@@H]1CCCN1C(=O)[C@H](CCCNC(=N)N)NC(=O)[C@@H]1CCC(=O)N1)C(=O)N[C@H](CC(C)C)C(=O)N[C@H](Cc1ccccc1)C(=O)O
B13: pE-R-P-R-L-a-Aib-K-G-P-nle-a-f-OH (peptide)
peptide: [pGlu]RPRL[dA][Aib]KGP[dNle][dA][dF]-OH
SMILES: CCCC[C@@H](NC(=O)[C@@H]1CCCN1C(=O)CNC(=O)[C@H](CCCCN)NC(=O)C(C)(C)NC(=O)[C@@H](C)NC(=O)[C@H](CC(C)C)NC(=O)[C@H](CCCNC(=N)N)NC(=O)[C@@H]1CCCN1C(=O)[C@H](CCCNC(=N)N)NC(=O)[C@@H]1CCC(=O)N1)C(=O)N[C@H](C)C(=O)N[C@H](Cc1ccccc1)C(=O)O
B14: pE-R-P-R-L-a-F-K-G-P-nle-a-f-OH (peptide)
peptide: [pGlu]RPRL[dA]FKGP[dNle][dA][dF]-OH
SMILES: CCCC[C@@H](NC(=O)[C@@H]1CCCN1C(=O)CNC(=O)[C@H](CCCCN)NC(=O)[C@H](Cc1ccccc1)NC(=O)[C@@H](C)NC(=O)[C@H](CC(C)C)NC(=O)[C@H](CCCNC(=N)N)NC(=O)[C@@H]1CCCN1C(=O)[C@H](CCCNC(=N)N)NC(=O)[C@@H]1CCC(=O)N1)C(=O)N[C@H](C)C(=O)N[C@H](Cc1ccccc1)C(=O)O
B15: pE-R-P-R-L-a-H-K-G-P-nle-e-f-OH (peptide)
peptide: [pGlu]RPRL[dA]HKGP[dNle][dE][dF]-OH
SMILES: CCCC[C@@H](NC(=O)[C@@H]1CCCN1C(=O)CNC(=O)[C@H](CCCCN)NC(=O)[C@H](Cc1c[nH]cn1)NC(=O)[C@@H](C)NC(=O)[C@H](CC(C)C)NC(=O)[C@H](CCCNC(=N)N)NC(=O)[C@@H]1CCCN1C(=O)[C@H](CCCNC(=N)N)NC(=O)[C@@H]1CCC(=O)N1)C(=O)N[C@H](CCC(=O)O)C(=O)N[C@H](Cc1ccccc1)C(=O)O
B16: pE-R-P-R-Cha-a-H-K-G-P-nle-a-f-OH (peptide)
peptide: [pGlu]RPR[Cha][dA]HKGP[dNle][dA][dF]-OH
SMILES: CCCC[C@@H](NC(=O)[C@@H]1CCCN1C(=O)CNC(=O)[C@H](CCCCN)NC(=O)[C@H](Cc1c[nH]cn1)NC(=O)[C@@H](C)NC(=O)[C@H](CC1CCCCC1)NC(=O)[C@H](CCCNC(=N)N)NC(=O)[C@@H]1CCCN1C(=O)[C@H](CCCNC(=N)N)NC(=O)[C@@H]1CCC(=O)N1)C(=O)N[C@H](C)C(=O)N[C@H](Cc1ccccc1)C(=O)O
B17: pE-R-P-R-L-a-H-K-G-P-nle-a-y-OH (peptide)
peptide: [pGlu]RPRL[dA]HKGP[dNle][dA][dY]-OH
SMILES: CCCC[C@@H](NC(=O)[C@@H]1CCCN1C(=O)CNC(=O)[C@H](CCCCN)NC(=O)[C@H](Cc1c[nH]cn1)NC(=O)[C@@H](C)NC(=O)[C@H](CC(C)C)NC(=O)[C@H](CCCNC(=N)N)NC(=O)[C@@H]1CCCN1C(=O)[C@H](CCCNC(=N)N)NC(=O)[C@@H]1CCC(=O)N1)C(=O)N[C@H](C)C(=O)N[C@H](Cc1ccc(O)cc1)C(=O)O

Target: T1, APJ receptor (human, UniProt P35414 1-380)
T1 sequence (looked up): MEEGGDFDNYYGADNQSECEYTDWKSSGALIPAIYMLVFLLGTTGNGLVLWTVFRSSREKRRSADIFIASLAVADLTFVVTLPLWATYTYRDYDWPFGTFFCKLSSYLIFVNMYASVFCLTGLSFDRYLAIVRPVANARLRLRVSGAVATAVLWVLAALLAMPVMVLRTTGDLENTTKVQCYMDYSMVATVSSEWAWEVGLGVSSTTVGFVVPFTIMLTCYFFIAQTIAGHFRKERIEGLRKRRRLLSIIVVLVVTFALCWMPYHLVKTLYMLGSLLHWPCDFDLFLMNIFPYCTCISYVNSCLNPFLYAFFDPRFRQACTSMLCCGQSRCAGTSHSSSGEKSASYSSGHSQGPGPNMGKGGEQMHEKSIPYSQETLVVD
Experiment: cell-based or functional assay

Binder | hAPJ Ca^2+ Flux EC50
B1 | 0.0665 µM
[pGlu]RPR[Tyr(Bzl)][dA]HKGP[dNle][dA][dF]-OH [pE-R-P-R-Y(Bzl)-a-H-K-G-P-nle-a-f-OH] | 0.121 µM
B2 | 0.0011 µM
B3 | 0.0009 µM
B4 | 0.155 µM
B5 | 0.386 µM
B6 | 0.0868 µM
B7 | 0.0023 µM
[pGlu]RPRL[dA][dH]KGP[dNle][dA][dF]-OH [pE-R-P-R-L-a-h-K-G-P-nle-a-f-OH] | 0.0088 µM
B8 | 0.0138 µM
B9 | 0.0692 µM
ERPRLAHKGPLAX (pE at 1; D-Ala at 6; D-Nle at 11; D-Ala at 12; D-Tic at 13) [pE-R-P-R-L-a-H-K-G-P-nle-a-tic-OH] | 0.0017 µM
B10 | 0.922 µM
B11 | 1.06 µM
B12 | 0.0032 µM
B13 | 0.0021 µM
B14 | 0.0031 µM
B15 | 0.17 µM
B16 | 0.0028 µM
B17 | 0.0009 µM
